Experimental data reported in a protein production outcome set (Wang et al. 2014).

Assay: label from the status in PepcDB records

Sequence | protein production
MSLGLDYEPSHLMFLVTVLDDRDGEVLGDAIQKLIEREEVLACHAVPCVTKKNRPGHVLVVLVDGGEDPDRVAEDVARDIMVLTGSTGVDRFDADGVYSVPSRFEDVRVVYGEREWRVSVKIAETEEGEVVTVKAEFDECREIGEETGIPPREVKAMVEAAARVGGWVDLKEREIKVQEGHHHHHH | not failed
MHSGLDNSAELRVSDFDPITLAGGTRTEVLPGAIQPHAALLALAPADLTIVHAAGATASLLGAAAELLPGTAASTAFSSDQIARLQALATAERWIERPQHAFTLNAPDATPIDVIVHHASGLLVVELDPRREPAPENSLALVQSMIRRARPAPNLQGFCDAMAAELRSVTGFDRVMVYRFARDGSADVIAEARGPETSPFLGLRDPQPDISNQPGSISRIRVQPDVHAPAAPLWPAHSPRNGLALDLSFSATRSASPEHRLYLAQLGVAASLSLSLVVEGELWGLIVCHHATPRFLPYRMREACALFAEMASLQLETRLAADQLAARLRSTRIHEELVTRMSQESDLAEGLIRFYPNLLDFIPAAGVGLWIDGQFTGIGATPGPAQVAAMMGWLHGVPHDGVYHTDCLALAYPPAKAFAGCASGLLALSLSNTPHNYVLWFRPEVVRVVTWAGMPNKPVGVDAGAPRTPKGCASSWQESVRLHGEPWLDTDVDAAHRLRESLLDVVLRRIDGIARERRSAQLLQEQLMRQVELGLSRSKDVAKTLQEEKRRRVLVEADLSKVLRRTVEDQEAERLRIARELHDTLGQSLTLLQLGFDKLGQAAGDNPELQQRIAEMKSLTADVGRQANRLAWEIRPTALDDLGIQTAIQNLLDSWSEKSSIEFDLHMTLGSRRLPSPVETTLYRVLQEALTNVVRHASARHVSVILQLGDDQVTMIVEDDGCGFVTAGRKPPSGRLGLLGIRERLSLVGGSLEIESAPGKGTALYARIPL | failed
MTKPQGAVAEKATPAVPKPQKVRVIVEFNKESILDYATEQKKTVAQLNQADVEKKLQSIKQEQDKVLKNIEKSVHFDSSKVKRYDAIINGVALDIQAQEIEKLKTIADVRRVYVSQEYVQTKPLLSSSGQLIGLPEVWNNSQYKGEGTVVAVIDSGVDFKHQALKIKEPNRAKYNKTSIEKLIHEKNLKGKFYSEKVPYGYNYYDYNDNLKDSYGVMHGMHVTGIVGANDDNQKLYGVAPNAQILAMKVFSDDQQNPTTFTDVWLKALDDAILLKADVVNMSLGTPAGFVHEGKDYPELEVIARACKAGIVIAVAAGNEGNITDGNTYGVKPLAENYDTALIANPALDDNTLAVASMENLKKHAHVLKFKDKKSGTEVTEVINLHVAPNASKTIIGLAVDLGAGAPSELSKHFDLSGKIAMLEIPEDNKSNGFLEKVQAITKLNPAAILLYNNAKVKDDLGSQLLVESEAAKFNIARITRSTYNNIKNNSNKIITILTERQAIDNSLAGQLSSYSSWGPTPDLRLKPEITAPGGHIFSTVEDNQYADKSGTSMAAPQVAGAAAVLKQYITDKKIPVDNAADFIKLLLMNTAQPIINKQSKDGKTPYFVRQQGSGAMNLAKALVTTVVATVTGTNDNNADGKLELRELKEKKFKARILLRNFGKTNKTYIISSEAIADPVDEKGFRTQNSEHLVSKKADAVTRKVTVEAGKTLAVDLDVDYSDAEALTRNNFLEGYLNLKDTEGVADLHLPFLGFYGSWTEQKAIDAFEGISEIGNGDKKRRVQFYVNKETNKTSSTFTTNGMLSLPIYNNTVFFSPNSPFYDKAGVRIAALRNMEYVQYSIIDPDTNKEVRVLGRSHDVRKLYRLDYRNSFAMMPDSIWDGKIKD | failed
MEDIVHKYKVSVIICFFNSAETLDAMIKDAVNQTLKDKEIILIDDGSYDGSLEIAEKYANKYSFIKIFSQKNMGLSASRDKGLSEAQGEYVIYWDGDDSVESTMLEVLYNRAKADNSDIVCSQFYIYFLAINVKRKSLLPFPNYPLTGKEAFKNLLFTVYATFGRKNFVVGTLWDKLIRRELILKNNIRQQNVVFEDIVFVMQIFLKASKVSFVNNYFYTNFQRMGSMSSSISVLHKSKLSLNTMETLLKREGIFNECQNLYKKFFLQFYYFISFKQIYIISWNISDKLVYRAYKEKLISVLDEIKGLSEFQDCYEYAKSFGFNEIQILPRIMLKIWNFSSRLYVNFSIFIYKFFIKN | failed
MYREFYGLTEKPFSKTPDPRYLFLSRGHREALARLQYAVEERELALLTGDIGCGKTTISRALMDAVGNDGCFCFIVNPRLSAVEFLRTVARSLGIAEPAAAKDELLRQLTEAVYRLEGEKRCPVIIIDEAQLIPDQEVFDEIRLLTNFQLDDRNLMSVILMGQPELRQILSEPAHEALRQRIAMHYHLQPLSLEETLEYVDFRVEVAGGPQGLFSPDAIRRIYELSGGVPRKINILATNALLVGFGKDSAWIDASLVEELRDEASLYLEHHHHHH | failed
QTEGLETVHIKGQRSYNAIATEKNGDYSSFAATVGTKIPASLREIPQSVSIITNQQVKDRNVDTFDQLARKTPGLRVLSNDDGRSSVYARGYEYSEYNIDGLPAQMQSINGTLPNLFAFDRVEVMRGPSGLFDSSGEMGGIVNLVRKRPTKAFQGHAAAGFGTHKQYKAEADVSGSLNSDGSVRGRVMAQTVGASPRPAEKNNRRETFYAAADWDINPDTVLGAGYLYQQRRLAPYNGLPADANNKLPSLPQHVFVGADWNKFKMHSHDVFADLKHYFGNGGYGKVGMRYSDRKADSNYTFAGSKLNNTGQADVAGLGTDIKQKAFAVDASYSRPFALGNTANEFVIGADYNRLRSTNEQGRSTLSKSVALDGFRALPYNGILQNARAGNKGFNHSVTEENLDETGLYAKTVFRPLEGLSLIAGGRVGHHKIESGDGKTLHKASKTKFTSYAGAVYDIDGSNSLYASASQLYTPQTSIGTDGKLLKPREGNQFEIGYKGSYMDDRLNTRVSFYRMKDKNAAAPLDSNNKKTRYAALGKRVMEGVETEISGAMTPKWQIHAGYSYLHSQIKTASNSRDEGIFLLMPKHSANLWTTYQVTSGLTIGGGVNA | failed
MSQPVAFVTGCSSGIGRALADAFQRAGYRVWASARKEDDVRALAEAGFQAVQLDVNDAAALARLAEELGVEAAGLDVLVNNAGYGAMGPLLDGGVEAMRRQFETNVFAVVGVTRALFPLLRRKSGLVVNVGSVSGVLVTPFAGAYCASKAAVHALSDALRLELAPFGVEVLEVQPGAIASNFGASASREMDSVVDERSPWWPLRRQIQARAAASQDNPTSAEDFARQLLAAVQRRPRPPLVRIGNGSRALPALARWLPRGLLERLLKKRFGLDTRL | failed
MSLENKENLVVIDLAIAEDSIQKKNIVYDKNGQNHFDVISAFIKSIRGSDPDATLYWLANMVEAGEDPNFIFRRLLISACEDIGLADPNAIVVVQSCCDAFDRVGFPEGLFFLSQASLYLAISPKSNSTKSIFKAMEAIKATNVSLVPNHLKNNASNYLNPHNYQGKWLQQEYLPTDLQGIKFWKPKDSGWEKNKYEDLPKKQKSEGHHHHHH | not failed
MSANDKQYISYNNVHQLCQVSAERIKNFKPDLIIAIGGGGFIPARILRTFLKEPGVPTIRIFAIILSLYEDLNSVGSEVEEVGVKVSRTQWIDYEQCKLDLVGKNVLIVDEVDDTRTTLHYALSELEKDAAEQAKAKGIDTEKSPEMKTNFGIFVLHDKQKPKKADLPAEMLNDKNRYFAAKTVPDKWYAYPWESTDIVFHTRMAIEQGNDIFIPEQEHKQ | failed
MLTDALLAFLHFTAIFVLVTLMAAEAVVLRPDMPPSAVRRLSQYDFFYFLSAMVVLATGLLRLFYGAKGVDFYLHNPWFHAKITVFVLIALATLPPTFAFARWRKQSLKLPEFVPTPAEIKKVRRWVMIEAHAFILLPLCAVMMARGIGIH | failed
MTTFDAKKLKKEYLDWYNQILEFSNLSNNSVKIDTPFKDNSLDNLKIYALYDQSRDMITLTDDGYTIFGLENNGVSINKFKKRKKIFEEHLSAYGIKYNDKTHEIFVQTNFKNFNKSKHNLLQCLIFVNDMYLLSNPKSQNIFTEDVANKLDEHNIYYGRDIPIIGSSGVVHNFDFFISAKKNQKEKFINVFSNPNNSMIIKSKITDAMQAKKIKRHRQNEFIFILNDSKKEINEHNKNLLHENYISTIDYSELDEKIGLLI | failed
MQGQWGYVAISFIIGIAIAFSSSVIWLTCCLVLNVFFCLYRTPRKTFFYCMIACLSGAMYTTYVQGQNNPLGDSYEATRGVIHNTPLINGDRLSFQVEDQNKNIVQLSYKMKSALEKKQMRQLHAGVSCVFEGERKEPQIARNFHGFNYRDYLYKQNIHFILDATYISECHKTSLSLVQWILLLRQQAISEVAEMFPEQSGAFMNALVFGDRQQMTFEVEEQYQQFGLVHLLAISGSHIVLLMVIVYFILLRSGVTREVATVCLIFCIPLYMILAGASPSVIRASITGVFMLIAFMCSIRLSSLDALSITAICMLIFDPYLVFNIGFQFSFVGSFALLLSTPLLLESGNGVIRNSIYISFISQLVSTPILLYHFGYFSPYSIFLNILYVPFLSLVVLSCSIVILICIPVIPFLAKRLANVLSIGLNLSNDFLSYCENLPFTRLNFGQTSILLVALYCVSIISILMVWERRMAKGILFISAGVFLFISTCHYVYPYFRESGSVTFLDVGQGDAILIRLPYDQEIYLIDTGGTILPNKEEWQRKKHEFSVGNDILIPYLQKEGIKKIDKLIITHGDADHIGAAQQLLSNITVKEVVFGRKEQDAELEKIVKKQALEKKVKIREVREGESWSINGAEFFVLAPTGKESSENNASIVMLAKLGGLTWLFTGDLEEEGEKFLVATYPELRADVLKVAHHGSNTSSTTPFLSVVQPNIAVISVGERNRYGHPHKDVIERFEKRGIEIWRTDKQGAISYVFKGENGTFRSKITYDETHNR | failed
MDGTPGHNAINRLQLVATLAEREVMRYTPAGVPIVNCLLSYSGQAMEAQAARQVEFSIEALGAGKMASVLDRIAPGTVLECVGFLARKHRSSKALVFHISGCNVFVKDLEHHHHHH | failed
MCVRLENENFKAELSESGAELTSLKSKNTDNEYIWTANSSYWGRHAPILFPIVGKVKDNKYRIADKVYNLSQHGFARDMEFEVEDNASDRAVFKLVWNDETLEKYPYKFELRVIYVLKDSTVDVTYNVKNVDDKDIFFSIGAHPGFNCPVIGKQSENDELQFEDYYIEFEKRETTGVVKLNSSNLLSRNTSPFLYASNILNLSEKLFKQGALILKDLDSTSISLKNDKNTTSVTVSFEGFPYVGLWSKPEGAPFVCIEPWFGHADYEDFNGDFREKEDGLKLEVGKEFECTYSITIGELEHHHHHH | not failed
MSDRKTMWDERYDTTDFVYGREPNAFLAEVVQQIPPGDVLCLAEGEGRNAVFLAKQGHRVLAVDSSAVGLVKAARLAEESGVRIETETADLAEFAIEPVCWDAIVSIFCHVPPQVRRALHRKVVEGLRPGGLFILEAYTPAQLKLRTGGPPTEEVMMTLAGLREELAGLEFLQAREIEREVVEGRFHTGRGAVVQVVARKP | failed
MELTQTHLLPVPLQTAWDALNDPAVLQRCIPGCESVTAATEHAYDIAMTAAVGPVKARFKGRMELADIVPPRSYTLHFDGQGGAAGFGKGTAQVQLAPEGPTVTRLSYTAHAQVGGKLAQIGSRLIDGAARKLADEFFQRFASEFGPAGGTGPLDAAPADQAIPDLASGELAAHGAPRTPLISPAVQPRNPWPWIIVALVAIVAAYLFLHHGA | failed
MTRPQAAAEDARNAMVAGLLASGISVNGLQPSHNPQVAAQMFTTATRLDPKMCDAWLARLLAGDQSIEVLAGAWAAVRTFGWETRRLGVTDLQFRPEVSDGLFLRLAITSVDSLACAYAAVLAEAKRYQEAAELLDATDPRHPFDAELVSYVRGVLYFRTKRWPDVLAQFPEATQWRHPELKAAGAAMATTALASLGVFEEAFRRAQEAIEGDRVPGAANIALYTQGMCLRHVGREEEAVELLRRVYSRDAKFTPAREALDNPNFRLILTDPETIEARTDPWDPDSAPTRAQTEAARHAEMAAKYLAEGDAELNAMLGMEQAKKEIKLIKSTTKVNLARAKMGLPVPVTSRHTLLLGPPGTGKTSVARAFTKQLCGLTVLRKPLVVETSRTKLLGRYMADAEKNTEEMLEGALGGAVFFDEMHTLHEKGYSQGDPYGNAIINTLLLYMENHRDELVVFGAGYAKAMEKMLEVNQGLRRRFSTVIEFFSYTPQELIALTQLMGRENEDVITEEESQVLLPSYTKFYMEQSYSEDGDLIRGIDLLGNAGFVRNVVEKARDHRSFRLDDEDLDAVLASDLTEFSEDQLRRFKELTREDLAEGLRAAVAEKKTK | failed
